The source of these data is patent US20180195054A1 (Stanford University, published 2018).

Numbering of substitutions follows the chain as printed. In names and notes the source's numbering stands.

Assay [1] has as its target human CD47 on the surface of cancer cells (Raji, Jurkat, DLD-1) (human) (UniProt Q08722). As to the kind of experiment: flow cytometry on Raji cells, competition with 100 nM Alexa Fluor 647 WT SIRPα tetramer. (In general: Flow cytometry measures light scatter and fluorescence of single cells or particles in a stream.)
The target of assay [2] is biotinylated CD47 IgSF domain (human CD47 residues 19-135 / residues 1-117, C15G) (human) (UniProt Q08722). Kind of assay: SPR (Biacore T100, 25 C), biotinylated CD47 captured on SA chip, SIRPα variant in solution, 1:1 Langmuir model.
Assay [3] addresses human CD47 on the surface of cancer cells (Raji, Jurkat, DLD-1) (human) (UniProt Q08722). As to the kind of experiment: flow cytometry on Jurkat cells, competition with Alexa Fluor 647 wild-type SIRPα tetramer (50 nM per paragraph 133).
In assay [4] the target is T1, biotinylated CD47 IgSF domain (human CD47 residues 19-135 / residues 1-117, C15G) (human, UniProt Q08722 19-135, biotinylated with BirA ligase at the C-terminal biotin acceptor peptide tag).
T1 construct: range 19-135; Captured on a Biacore SA chip for SPR; C15G is counted on the mature domain (1-117), not on the precursor; also called immobilized CD47
Kind of assay: SPR (Biacore T100, 25 C), biotinylated CD47 captured on SA chip, SIRPα variant in solution, 1:1 Langmuir model. As to the method: SPR experiments were conducted on a Biacore T100 instrument at 25° C. Experiments used a Biacore SA sensor chip (GE Healthcare) to capture biotinylated CD47 at a surface density of approximately 150 RU. An unrelated biotinylated protein was immobilized as a reference surface for the SA sensor chip with matching RU to the experimental surface. Serial dilutions of unbiotinylated SIRPα variants in the running buffer [1×HBS-P (GE Healthcare)] were flowed over the chip at a rate of 50 μL/min. CD47 was regenerated using three 30 second injections of 2M MgCl₂. Data was analyzed using the Biacore T100 evaluation software version 2.0 with a 1:1 Langmuir binding model.
Experiments were conducted with a Biacore T100 at 25° C. Protein concentrations were quantified by 280 nm absorbance with a Nanodrop2000 spectrometer (Thermo Scientific). A Biacore SA sensor chip (GE Healthcare) was used to capture biotinylated CD47 (Rₘₐₓ ˜150 RU). An unrelated biotinylated protein was immobilized with an RU value matching that of the […] to control for nonspecific binding. Measurements were made with serial dilutions of the SIRPα variants in HBS-P+ buffer (GE Healthcare). The CD47 surface was regenerated by three 60 second injections of 2 M MgCl₂. All data were analyzed with the Biacore T100 evaluation software version 2.0 with a 1:1 Langmuir binding model.

The target of assay [5] is T2, human CD47 on the surface of cancer cells (Raji, Jurkat, DLD-1) (human, UniProt Q08722 19-323).
T2 construct: whole, on cells; also called cell-surface CD47; CD47 on cancer cells
As to the kind of experiment: flow cytometry on Raji cells, competition with 100 nM Alexa Fluor 647 WT SIRPα tetramer.

Assay [6] has as its target T3, mouse CD47 displayed on the surface of yeast (mouse, UniProt Q61735 19-133, limits assumed).
T3 sequence (looked up): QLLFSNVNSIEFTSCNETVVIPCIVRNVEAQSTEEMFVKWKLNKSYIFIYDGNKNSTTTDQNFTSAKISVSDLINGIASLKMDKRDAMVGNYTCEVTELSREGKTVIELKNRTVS
Kind of assay: flow cytometry on yeast displaying mouse CD47.

For assay [7], the target named is T2, human CD47 on the surface of cancer …. As to the kind of experiment: flow cytometry on DLD-1 cells, detection with goat anti-human IgG. On the procedure:
Varying concentrations of biotinylated SIRPα monomers, SIRPα-hlgG4 fusion proteins, or anti-CD47 antibodies were incubated with cancer cells as indicated. […] Binding of SIRPα-hlgG4 fusion proteins or anti-CD47 antibodies was detected with goat anti-human IgG antibody (Invitrogen) and was analyzed on an LSRFortessa with high-throughput sampler (BD Biosciences). Data represent the mean fluorescence intensity normalized to maximal binding for each class of reagents, and points were fit to sigmoidal dose-response curves using Prism 5 (Graphpad).

Assay [8] has the same target. Kind of assay: flow cytometry on Jurkat cells, competition with Alexa Fluor 647 wild-type SIRPα tetramer (50 nM per paragraph 133). On the procedure:
(§1) GFP+ Jurkat cells were washed in PBS then incubated with titrating concentrations of biotinylated SIRPα variants for 30 minutes on ice. Wild-type SIRPα tetramer was pre-formed by incubating a 4:1 molar ratio of biotinylated wild-type SIRPα with streptavidin for 15 minutes on ice. […] Cells were washed twice then analyzed for SIRPα variant binding by flow cytometry using an Accuri C6 flow cytometer. To assess blocking of wild-type SIRPα to cD47, 50 nM wild-type SIRPα tetramer was incubated with titrating concentrations of CD47 blocking agents for 30 minutes on ice. Anti-CD47 clone B6H12 (eBioscience) was used as a positive control for blocking. Data were analyzed using GraphPad Prism 5. Maximal SIRPα variant binding represents the percentage of the maximal mean fluorescence intensity measured for each variant.

The target of assay [9] is T4, mouse CD47 on mouse cells (CT26 colon cancer cells; mouse blood cells) (mouse, UniProt Q61735 19-303).
T4 construct: whole, on cells
T4 sequence (looked up): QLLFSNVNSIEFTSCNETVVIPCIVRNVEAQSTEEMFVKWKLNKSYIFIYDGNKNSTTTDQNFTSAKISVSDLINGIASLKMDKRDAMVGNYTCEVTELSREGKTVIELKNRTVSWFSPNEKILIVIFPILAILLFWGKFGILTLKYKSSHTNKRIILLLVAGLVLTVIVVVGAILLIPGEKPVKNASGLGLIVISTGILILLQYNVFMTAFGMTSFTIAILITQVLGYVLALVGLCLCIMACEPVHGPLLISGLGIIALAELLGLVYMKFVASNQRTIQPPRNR
As to the kind of experiment: flow cytometry on mouse CT26 colon cancer cells.

The target of assay [10] is T2, human CD47 on the surface of cancer …. Kind of assay: flow cytometry on Jurkat cells, biotinylated SIRPα variant detected with Alexa Fluor 647 streptavidin. On the procedure: as §1

Molecule “Fab fragments of anti-CD47 antibody clone B6H12” registered an IC50 (read off the curve) in assay [1] of 100 nM.
“WT allele 2 (from UniProt P78324) (receptor)”: the Kd (commonly the concentration at which binding is half-saturated) in [2] is 452 nM.
Molecule Anti-CD47 (B6H12) (antibody) showed an IC50 (read off the curve) in assay [3] of 80 nM.

B1: high-affinity SIRPα variant CV1 monomer (consensus variant 1, d1 domain) (designed binder)
chain: EEELQIIQPDKSVLVAAGETATLRCTITSLFPVGPIQWFRGAGPGRVLIYNQRQGPFPRVTTVSDTTKRNNMDFSIRIGNITPADAGTYYCIKFRKGSPDDVEFKSGAGTELSVRAKPSHHHHHHHH
notes: Nine consensus substitutions grafted onto wild-type SIRPα allele 2
With B1, the Kd in assay [4] came to 0.0111 nM. In [5], the “IC50 (read off the curve)” value is approximately 0.8 nM. In addition, the concentration giving a half-maximal response (EC50 (read off the curve)) (commonly the concentration needed to bring the measured effect to its halfway point) in assay [6] is approximately 20 nM.

B2: CV1-hIgG4 (CV1 d1 domain fused to hinge, CH2 and CH3 of human IgG4 S228P) (Fc fusion)
chain: EEELQIIQPDKSVLVAAGETATLRCTITSLFPVGPIQWFRGAGPGRVLIYNQRQGPFPRVTTVSDTTKRNNMDFSIRIGNITPADAGTYYCIKFRKGSPDDVEFKSGAGTELSVRAKPSAAAPPCPPCPAPEFLGGPSVFLFPPKPKDTLMISRTPEVTCVVVDVSQEDPEVQFNWYVDGVEVHNAKTKPREEQFNSTYRVVSVLTVLHQDWLNGKEYKCKVSNKGLPSSIEKTISKAKGQPREPQVYTLPPSQEEMTKNQVSLTCLVKGFYPSDIAVEWESNGQPENNYKTTPPVLDSDGSFFLYSRLTVDKSRWQEGNVFSCSVMHEALHNHYTQKSLSLSPGK
notes: also called CV1-hlgG4
As for B2, the “EC50 (read off the curve)” value in assay [7] is approximately 4 nM.

B3: FD6-hIgG4 (FD6 d1 domain fused to hinge, CH2 and CH3 of human IgG4) (Fc fusion)
chain: EEEVQIIQPDKSVSVAAGESAILHCTITSLFPVGPIQWFRGAGPARVLIYNQRQGPFPRVTTISETTRRENMDFSISISNITPADAGTYYCIKFRKGSPDTEFKSGAGTELSVRAKPSAAAPPCPPCPAPEFLGGPSVFLFPPKPKDTLMISRTPEVTCVVVDVSQEDPEVQFNWYVDGVEVHNAKTKPREEQFNSTYRVVSVLTVLHQDWLNGKEYKCKVSNKGLPSSIEKTISKAKGQPREPQVYTLPPSQEEMTKNQVSLTCLVKGFYPSDIAVEWESNGQPENNYKTTPPVLDSDGSFFLYSRLTVDKSRWQEGNVFSCSVMHEALHNHYTQKSLSLSPGK
notes: also called FD6-hlgG4; FD-hlgG4
For the molecule B3, the “EC50 (read off the curve)” value in assay [7] is approximately 5 nM. In addition, the “IC50 (read off the curve)” value in [8] is approximately 2 nM.

B4: first generation SIRPα mutant 1A5 monomer (designed binder)
chain: EEEVQVIQPDKSVSVAAGESAILHCTLTSLIPVGPIQWFRGAGPARVLIYNQRQGHFPRVTTVSEGTRRENMDFSISISNITPADAGTYYCIKFRKGSPDTEFKSGAGTELSVRAKPSHHHHHHHH
In turn, B4 had a Kd in assay [4] of 3.6 nM. In addition, the “IC50 (read off the curve)” value in [8] was approximately 80 nM.

B5: high-affinity SIRPα variant FD6 monomer (d1 domain) (designed binder)
chain: B4 chain with V6I, L27I, I31F, H56P, V63I, G66T
notes: Second generation variant of human SIRPα allele 1 d1
As for B5, binding in [4] was characterised by a dissociation constant (Kd) of 0.0413 nM. Also, the “IC50 (read off the curve)” value in [5] was approximately 2 nM; in assay [8], approximately 3 nM.

B6: FA4 (designed binder)
SIRPα d1 domain variant: EEELQIIQPDKSVSVAAGESAILHCTITSLTPVGPIQWFRGAGPARVLIYNQRQGPFPRVTTVSEGTRRENMDFSISISNITPADAGTYYCIKFRKGSPDTEVKSGAGTELSVRAKPS
notes: also called FA4 mutant d1 domain; FA4 monomer (unbiotinylated, SPR analyte)
As for B6, binding in [4] was characterised by a dissociation constant (Kd) of 0.034 nM.

B7: 1D4 (designed binder)
SIRPα d1 domain variant: B6 SIRPα d1 domain variant with I6V, T31I, V47E, Q54E, P56H, G66T, I92V
notes: First generation variant, unbiotinylated monomer in SPR; also called 1D4 mutant d1 domain
With B7, in assay [4], binding was characterised by a dissociation constant (Kd) of 11.6 nM.

B8: 2B5 (designed binder)
SIRPα d1 domain variant: B6 SIRPα d1 domain variant with L4I, I6V, A21V, L23I, I27V, T31F, P56R, R68K, I92V, F94V
notes: also called 2B5 mutant d1 domain
B8 gave a dissociation constant (Kd) in [4] of 0.423 nM.

B9: 2D3 (designed binder)
SIRPα d1 domain variant: B6 SIRPα d1 domain variant with L4V, A21V, V47L, Q54E, G66T, I92V, F94L, V103F
notes: also called 2D3 mutant d1 domain
Molecule B9 returned a Kd in assay [4] of 0.847 nM.

B10: FB3 (designed binder)
SIRPα d1 domain variant: B6 SIRPα d1 domain variant with T31F, V47L, G66T, R68K, I92V, V103F
notes: also called FB3 mutant d1 domain
B10 gave a dissociation constant Kd in assay [4] of 0.0699 nM.

B11: 2A10 (designed binder)
SIRPα d1 domain variant: B6 SIRPα d1 domain variant with T31S, R68K, F94L, V103F
notes: also called 2A10 mutant d1 domain
Turning to B11, in assay [4], the Kd came to 0.5 nM.

B12: 2A2 (designed binder)
SIRPα d1 domain variant: B6 SIRPα d1 domain variant with L4V, A21I, I27V, T31F, Q54E, P56R, F94L, V103F
notes: also called 2A2 mutant d1 domain
Take B12: in [4], the affinity, expressed as Kd, was 0.402 nM.

B13: 2F5 (designed binder)
SIRPα d1 domain variant: B6 SIRPα d1 domain variant with L4V, I6L, I27V, T31F, Q54E, R68K
notes: also called 2F5 mutant d1 domain
Regarding B13, the Kd in assay [4] was determined as 0.276 nM.

B14: biotinylated FD6 monomer (designed binder)
chain: EEEVQIIQPDKSVSVAAGESAILHCTITSLFPVGPIQWFRGAGPARVLIYNQRQGPFPRVTTISETTRRENMDFSISISNITPADAGTYYCIKFRKGSPDTEFKSGAGTELSVRAKPSGLNDIFEAQKIEWHEHHHHHHHH
modifications: biotinylated at the C-terminal biotin acceptor peptide tag
Consider B14, for which, in assay [9], the “EC50 (read off the curve)” value was approximately 300 nM.

B15: biotinylated high-affinity SIRPα variant FA4 monomer (designed binder)
chain: B14 chain with V4L, F31T, I63V, T66G, F103V
modifications: biotinylated at the C-terminal biotin acceptor peptide tag
B15: the binding result in [10] is recorded as “binds”.
